Assay results reported in the supplement of paper PMC10065799, “High-throughput profiling of sequence recognition by tyrosine kinases and SH2 domains using bacterial peptide display” (eLife, 2023).

Experiments:
AncSZ = assay: phosphorylation enrichment, bacterial display (enrichment ratio); higher = better substrate or ligand; peptides without Tyr show the background
EPHB1 = EPHB1 (UniProt P54762); assay: as above
EPHB2 = EPHB2 (UniProt P29323); assay: as above
FGFR1 = FGFR1 (UniProt P11362); assay: as above
FGFR3 = FGFR3 (UniProt P22607); assay: as above
Fer (mouse) = assay: as above
Fes = Fes (UniProt P07332); assay: as above
Fyn = Fyn (UniProt P06241); assay: as above
Hck = Hck (UniProt P08631); assay: as above
Jak2 = Jak2 (UniProt O60674); assay: as above
MERTK = MERTK (UniProt Q12866); assay: as above
c-Abl (mouse) = assay: as above
c-Src = assay: as above
Grb2 SH2 = Grb2 SH2 (UniProt P62993); assay: SH2 binding enrichment of the phosphorylated peptide, bacterial display (enrichment ratio); higher = better substrate or ligand; peptides without Tyr show the background
SHP2-C SH2 = assay: as above
c-Src SH2 = assay: as above
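Throughout, for SH2 binding enrichment of the phosphorylated peptide, bacterial display: peptide library displayed on the E. coli surface as eCPX fusions, selected cells deep-sequenced, score is each peptide's frequency after selection divided by its frequency in the input.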
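Throughout, for phosphorylation enrichment, bacterial display: 11-residue human phosphosite peptides and single-mutation variants displayed on the E. coli surface, counted by deep sequencing, each peptide's frequency after selection divided by its frequency in the unselected input library; frequency after pTyr selection over input frequency; kinase dosed for 20-30% of maximal phosphorylation in three min.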

Fyn, sequence (P06241 whole entry, looked up): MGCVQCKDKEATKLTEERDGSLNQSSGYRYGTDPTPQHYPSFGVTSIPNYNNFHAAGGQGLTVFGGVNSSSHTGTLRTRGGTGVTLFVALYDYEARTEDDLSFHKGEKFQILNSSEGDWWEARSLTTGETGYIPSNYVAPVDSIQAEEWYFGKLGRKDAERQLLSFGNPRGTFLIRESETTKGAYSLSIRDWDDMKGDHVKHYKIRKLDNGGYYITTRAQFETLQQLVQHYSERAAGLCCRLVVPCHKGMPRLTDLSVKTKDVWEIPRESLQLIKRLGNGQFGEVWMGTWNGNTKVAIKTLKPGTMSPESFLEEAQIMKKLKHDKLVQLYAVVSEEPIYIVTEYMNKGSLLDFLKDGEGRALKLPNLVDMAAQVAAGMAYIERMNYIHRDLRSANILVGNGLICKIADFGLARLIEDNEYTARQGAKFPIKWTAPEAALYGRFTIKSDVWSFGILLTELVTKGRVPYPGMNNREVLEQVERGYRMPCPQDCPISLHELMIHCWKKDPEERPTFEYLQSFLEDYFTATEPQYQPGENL
Fes, sequence (P07332 whole entry, looked up): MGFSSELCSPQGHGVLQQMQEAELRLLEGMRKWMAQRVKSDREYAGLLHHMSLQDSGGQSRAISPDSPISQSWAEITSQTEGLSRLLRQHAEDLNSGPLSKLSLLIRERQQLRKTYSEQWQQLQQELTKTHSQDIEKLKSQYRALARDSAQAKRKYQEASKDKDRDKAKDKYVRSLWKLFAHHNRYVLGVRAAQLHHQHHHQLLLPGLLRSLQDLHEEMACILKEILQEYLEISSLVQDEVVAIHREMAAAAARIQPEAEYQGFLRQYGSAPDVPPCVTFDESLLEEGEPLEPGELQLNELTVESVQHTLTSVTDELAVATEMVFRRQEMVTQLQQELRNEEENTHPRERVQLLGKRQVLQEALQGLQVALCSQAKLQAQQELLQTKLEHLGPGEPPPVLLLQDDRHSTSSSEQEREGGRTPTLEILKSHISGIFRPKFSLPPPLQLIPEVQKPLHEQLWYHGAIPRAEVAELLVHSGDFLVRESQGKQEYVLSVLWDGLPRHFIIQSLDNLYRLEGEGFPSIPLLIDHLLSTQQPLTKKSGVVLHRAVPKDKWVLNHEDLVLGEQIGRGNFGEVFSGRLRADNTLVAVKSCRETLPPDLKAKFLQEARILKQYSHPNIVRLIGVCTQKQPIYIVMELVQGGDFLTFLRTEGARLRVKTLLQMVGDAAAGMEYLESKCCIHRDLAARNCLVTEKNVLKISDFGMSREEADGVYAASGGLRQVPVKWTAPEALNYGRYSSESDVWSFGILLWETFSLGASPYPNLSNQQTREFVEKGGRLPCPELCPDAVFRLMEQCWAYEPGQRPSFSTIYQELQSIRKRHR
Hck, sequence (P08631 whole entry, looked up): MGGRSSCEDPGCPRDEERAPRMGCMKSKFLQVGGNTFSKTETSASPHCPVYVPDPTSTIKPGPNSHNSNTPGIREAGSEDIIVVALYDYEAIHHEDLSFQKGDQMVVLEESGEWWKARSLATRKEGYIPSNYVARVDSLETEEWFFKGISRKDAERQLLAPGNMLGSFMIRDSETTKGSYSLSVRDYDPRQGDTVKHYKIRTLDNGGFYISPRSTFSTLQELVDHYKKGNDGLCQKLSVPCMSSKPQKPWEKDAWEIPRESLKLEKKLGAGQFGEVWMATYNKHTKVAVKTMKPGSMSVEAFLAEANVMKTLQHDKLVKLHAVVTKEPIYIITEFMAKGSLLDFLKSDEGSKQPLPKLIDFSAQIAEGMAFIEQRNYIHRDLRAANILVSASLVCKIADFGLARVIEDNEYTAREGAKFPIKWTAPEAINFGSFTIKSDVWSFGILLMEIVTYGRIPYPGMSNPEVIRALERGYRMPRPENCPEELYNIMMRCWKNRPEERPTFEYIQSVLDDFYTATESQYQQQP
FGFR3, sequence (P22607 whole entry, looked up): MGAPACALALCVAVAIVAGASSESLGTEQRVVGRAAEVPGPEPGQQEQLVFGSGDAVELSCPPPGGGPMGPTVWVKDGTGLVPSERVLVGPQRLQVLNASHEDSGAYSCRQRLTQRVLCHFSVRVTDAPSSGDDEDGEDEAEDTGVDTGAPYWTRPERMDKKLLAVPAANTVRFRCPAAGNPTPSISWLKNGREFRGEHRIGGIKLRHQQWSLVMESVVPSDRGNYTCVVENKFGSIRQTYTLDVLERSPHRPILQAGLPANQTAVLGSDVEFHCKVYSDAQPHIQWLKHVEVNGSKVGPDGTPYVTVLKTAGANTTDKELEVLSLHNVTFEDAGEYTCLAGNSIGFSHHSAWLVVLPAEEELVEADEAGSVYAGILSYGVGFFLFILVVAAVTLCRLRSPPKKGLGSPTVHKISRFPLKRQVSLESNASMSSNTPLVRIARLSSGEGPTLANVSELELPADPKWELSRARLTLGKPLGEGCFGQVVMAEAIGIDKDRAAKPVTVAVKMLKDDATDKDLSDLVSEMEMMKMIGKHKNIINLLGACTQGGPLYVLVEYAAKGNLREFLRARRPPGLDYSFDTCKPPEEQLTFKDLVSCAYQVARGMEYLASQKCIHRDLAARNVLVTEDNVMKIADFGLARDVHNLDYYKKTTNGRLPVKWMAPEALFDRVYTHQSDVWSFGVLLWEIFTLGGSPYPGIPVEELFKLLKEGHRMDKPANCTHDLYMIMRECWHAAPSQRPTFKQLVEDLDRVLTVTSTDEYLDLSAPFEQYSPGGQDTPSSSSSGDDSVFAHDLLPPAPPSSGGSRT
FGFR1, sequence (P11362 whole entry, looked up): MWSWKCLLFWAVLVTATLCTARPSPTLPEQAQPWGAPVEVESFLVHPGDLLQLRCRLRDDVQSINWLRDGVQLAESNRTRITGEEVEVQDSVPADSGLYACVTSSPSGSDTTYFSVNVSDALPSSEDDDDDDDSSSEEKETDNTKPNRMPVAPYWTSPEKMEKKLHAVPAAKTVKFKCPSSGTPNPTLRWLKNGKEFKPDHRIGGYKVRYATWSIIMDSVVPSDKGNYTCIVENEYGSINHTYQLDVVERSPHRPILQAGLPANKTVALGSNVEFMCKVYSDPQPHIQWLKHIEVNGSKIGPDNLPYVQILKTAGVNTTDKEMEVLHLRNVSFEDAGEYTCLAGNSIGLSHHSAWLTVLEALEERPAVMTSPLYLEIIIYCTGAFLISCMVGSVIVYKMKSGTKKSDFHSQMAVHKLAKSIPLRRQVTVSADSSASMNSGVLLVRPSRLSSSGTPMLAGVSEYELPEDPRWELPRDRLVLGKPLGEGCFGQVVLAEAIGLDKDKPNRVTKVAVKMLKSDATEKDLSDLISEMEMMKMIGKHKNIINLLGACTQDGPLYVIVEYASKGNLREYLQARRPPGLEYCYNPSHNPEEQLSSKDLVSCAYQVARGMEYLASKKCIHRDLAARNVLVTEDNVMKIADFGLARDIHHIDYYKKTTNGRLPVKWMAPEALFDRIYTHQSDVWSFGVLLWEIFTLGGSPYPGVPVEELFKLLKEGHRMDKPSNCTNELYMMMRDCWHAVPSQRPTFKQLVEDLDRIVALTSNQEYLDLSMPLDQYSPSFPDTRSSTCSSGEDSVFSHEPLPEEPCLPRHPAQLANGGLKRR
EPHB2, sequence (P29323 whole entry, looked up): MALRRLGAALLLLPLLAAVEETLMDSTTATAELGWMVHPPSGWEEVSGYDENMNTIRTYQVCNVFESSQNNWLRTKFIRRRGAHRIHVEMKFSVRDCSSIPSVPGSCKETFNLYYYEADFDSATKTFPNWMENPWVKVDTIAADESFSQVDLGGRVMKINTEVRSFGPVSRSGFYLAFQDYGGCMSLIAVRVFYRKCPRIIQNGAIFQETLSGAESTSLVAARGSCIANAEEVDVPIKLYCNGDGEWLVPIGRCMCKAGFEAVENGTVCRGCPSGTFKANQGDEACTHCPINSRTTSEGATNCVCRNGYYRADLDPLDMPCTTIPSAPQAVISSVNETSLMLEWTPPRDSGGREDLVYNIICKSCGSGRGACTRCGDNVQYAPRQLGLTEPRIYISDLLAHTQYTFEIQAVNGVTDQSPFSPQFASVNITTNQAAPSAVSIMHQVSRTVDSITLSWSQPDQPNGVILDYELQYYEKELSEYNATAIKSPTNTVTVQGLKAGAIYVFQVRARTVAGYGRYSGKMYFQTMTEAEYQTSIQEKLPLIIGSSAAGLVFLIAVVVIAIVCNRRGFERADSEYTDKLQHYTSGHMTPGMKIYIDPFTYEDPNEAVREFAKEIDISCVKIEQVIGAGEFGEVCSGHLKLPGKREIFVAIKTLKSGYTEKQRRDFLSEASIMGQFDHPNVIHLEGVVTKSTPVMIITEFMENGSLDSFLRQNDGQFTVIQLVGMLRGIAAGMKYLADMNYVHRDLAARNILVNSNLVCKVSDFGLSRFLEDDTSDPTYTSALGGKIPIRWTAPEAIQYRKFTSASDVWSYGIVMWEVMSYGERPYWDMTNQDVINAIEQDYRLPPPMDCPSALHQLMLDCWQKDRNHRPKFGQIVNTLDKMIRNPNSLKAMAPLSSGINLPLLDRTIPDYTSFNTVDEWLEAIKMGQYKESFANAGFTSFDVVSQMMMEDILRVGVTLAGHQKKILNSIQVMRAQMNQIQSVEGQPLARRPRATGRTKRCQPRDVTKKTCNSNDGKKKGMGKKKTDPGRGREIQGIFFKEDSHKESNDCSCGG

Sequence	SH2 binding enrichment (Grb2 SH2)	SH2 binding enrichment (SHP2-C SH2)	SH2 binding enrichment (c-Src SH2)	phosphorylation enrichment (AncSZ)	phosphorylation enrichment (EPHB1)	phosphorylation enrichment (EPHB2)	phosphorylation enrichment (FGFR1)	phosphorylation enrichment (FGFR3)	phosphorylation enrichment (Fer (mouse))	phosphorylation enrichment (Fes)	phosphorylation enrichment (Fyn)	phosphorylation enrichment (Hck)	phosphorylation enrichment (Jak2)	phosphorylation enrichment (MERTK)	phosphorylation enrichment (c-Abl (mouse))	phosphorylation enrichment (c-Src)
HFEDGYPGGSD [CTNND1_Y221_YF]	0.851	0.731	0.397	1.15	0.656	0.675	0.668	0.806	0.5	1.45	0.74	0.756	0.955	0.598	0.485	0.514
VVDVTYDDVPI [FLNB_Y1308_E1305D]	0.822	0.866	0.518	1.38	2.21	1.23	0.506	0.697	3.96	1.27	1.04	1.3	0.951	0.511	0.801	1.05
KVITDYFVDMK [MPP4_Y566_YF]	0.757	0.717	0.595	0.897	0.429	0.547	0.748	0.795	0.451	1.36	0.455	0.561	0.858	0.439	0.673	0.435
GLPQTYCVSGP [DYSF_Y1684]	0.839	0.528	0.611	0.978	0.72	0.667	0.497	0.655	0.559	0.978	0.629	0.631	0.609	0.605	0.583	0.524
PNRILYGDFRQ [MYH6_Y717]	0.918	0.878	0.568	0.823	0.538	0.731	0.501	0.688	0.5	1.02	6.85	4.43	0.862	0.622	0.658	5.52
PQAVRYIFTID [DCX_Y103_G100A_YF]	1.53	3.09	1.54	1.15	1.29	0.59	1.01	0.841	0.524	1.76	0.639	0.673	0.806	0.595	0.863	0.385
DDKQPYEKKAA [HMGB1_Y144]	0.964	0.741	0.606	0.988	0.585	0.464	0.493	0.629	0.475	0.947	0.518	0.536	0.851	0.415	0.539	0.436
QADVVYVNTQL [MERTK_Y872_I871V]	4.29	1.43	0.718	0.822	0.66	1.17	0.88	0.648	3.51	1.8	0.729	0.729	0.728	0.372	0.631	0.738
KLSCSYSHWSA [C4BPA_Y470]	0.894	0.802	0.732	1.13	0.716	0.771	0.793	0.91	0.657	1.28	0.578	0.636	0.894	0.527	1.15	0.672
VTRAKYFIRDE [GNAS_Y339]	0.989	0.54	0.358	0.654	0.356	0.405	0.45	0.432	0.325	0.694	0.404	0.409	0.622	0.405	0.458	0.375

Continued, in another order:

SH2 binding enrichment (Grb2 SH2)	SH2 binding enrichment (SHP2-C SH2)	SH2 binding enrichment (c-Src SH2)	Sequence	phosphorylation enrichment (AncSZ)	phosphorylation enrichment (EPHB1)	phosphorylation enrichment (EPHB2)	phosphorylation enrichment (FGFR1)	phosphorylation enrichment (FGFR3)	phosphorylation enrichment (Fer (mouse))	phosphorylation enrichment (Fes)	phosphorylation enrichment (Fyn)	phosphorylation enrichment (Hck)	phosphorylation enrichment (Jak2)	phosphorylation enrichment (MERTK)	phosphorylation enrichment (c-Abl (mouse))	phosphorylation enrichment (c-Src)
1.11	1.57	1.34	FHLLPYTVRAM [PARS2_Y93_YF]	0.8	0.581	0.633	0.564	0.551	0.514	0.971	0.446	0.501	0.691	0.438	0.546	0.711
0.966	0.762	0.553	SLIDMYSEVLA [OPA1_Y268_D273A]	1.24	0.766	0.869	1.12	0.832	0.891	1.03	0.959	0.873	0.925	0.615	0.539	1.61
1.05	1.16	0.587	DKANRYFSPNF [PTEN_Y336]	0.583	0.296	0.301	0.397	0.461	0.375	0.521	0.323	0.402	0.488	0.374	0.438	0.362
0.755	0.762	0.607	QKLPSYILENN [VPS13B_Y2774]	1.53	0.787	0.701	0.625	0.938	0.681	1.94	0.629	0.792	1.49	0.529	1.11	0.499
1.11	0.872	0.653	FGVVGYLAIMF [RNF175_Y155]	1.04	0.795	0.579	0.474	0.819	0.484	1.44	0.519	0.655	1.45	0.532	1.37	0.443
0.874	0.778	0.769	SVVVPYEPPED [TP53_Y220_V225D]	1.31	0.607	0.641	0.545	0.759	0.549	1.4	0.479	0.544	1.15	0.441	0.772	0.491
0.741	0.717	0.683	SVVVPYEPPEL [TP53_Y220_V225L]	0.905	0.489	0.524	0.459	0.666	0.491	0.869	0.494	0.503	0.811	0.424	0.54	0.437
